Results reported in PMC11384143 (2024).
Where two headings read alike, the source gives them in different places.

B1: 6 × His tagged cynomolgus SIRPα ECD recombinant protein (domain or fragment)
chain: EEELQVIQPEKSVSVAAGDSATLNCTVSSLIPVGPIQWFRGAGPGRELIYNLKEGHFPRVTPVSDPTKRNNMDFSIRISNITPADAGTYYCVKFRKGSPDVELKSGAGTELSVRAKPSAPVVSGPAVRATAEHTVSFTCESHGFSPRDITLKWFKNGNELSDVQTNVDPAGKSVSYSIRSTARVVLTRRDVHSQVICEVAHVTLQGDPLRGTANLSEAIRVPPFLEVTQQSMRADNQVNVTCQVTKFYPQRLQLTWLENGNVSRTEMASALPENKDGTYNWTSWLLVNVSAHRDDVKLTCQVEHDGQPAVNKSFSVKVSAHPKEQGSNTAAENTGTNERN
B2: 6 × His tagged huSIRPγ ECD recombinant protein (domain or fragment)
chain: EEELQMIQPEKLLLVTVGKTATLHCTVTSLLPVGPVLWFRGVGPGRELIYNQKEGHFPRVTTVSDLTKRNNMDFSIRISSITPADVGTYYCVKFRKGSPENVEFKSGPGTEMALGAKPSAPVVLGPAARTTPEHTVSFTCESHGFSPRDITLKWFKNGNELSDFQTNVDPTGQSVAYSIRSTARVVLDPWDVRSQVICEVAHVTLQGDPLRGTANLSEAIRVPPTLEVTQQPMRVGNQVNVTCQVRKFYPQSLQLTWSENGNVCQRETASTLTENKDGTYNWTSWFLVNISDQRDDVVLTCQVKHDGQLAVSKRLALEVTVHQKDQSSDATP
B3: HEFLB (an analogue of BI 765063) (antibody, V domains shown)
VH: EVQLVQSGAEVKKPGESLRISCKASGYSFTSYWVHWVRQMPGKGLEWMGNIDPSDSDTHYSPSFQGHVTLSVDKSISTAYLQLSSLKASDTAMYYCVRGGTGTLAYFAYWGQGTLVTVSS
VL: DVVMTQSPLSLPVTLGQPASISCRSSQSLVHSYGNTYLYWFQQRPGQSPRLLIYRVSNRFSGVPDRFSGSGSGTDFTLKISRVEAEDVGVYYCFQGTHVPYTFGGGTKVEIK
B4: hu1H9 (an analogue of FSI-189, Gilead) (antibody, V domains shown)
VH: QVQLVQSGAEVKKPGASVKVSCKASGYTFTSYWITWVKQAPGQGLEWIGDIYPGSGSTNHIEKFKSKATLTVDTSISTAYMELSRLRSDDTAVYYCATGYGSSYGYFDYWGQGTLVTVSS
VL: DIQMTQSPSSLSASVGDRVTITCRASENIYSYLAWYQQKPGKAPKLLIYTAKTLAEGVPSRFSGSGSGTDFTLTISSLQPEDFATYYCQHQYGPPFTFGQGTKLEIK

Tests used:
[1] = target: ES004-B5; experiment: SPR
[2] = target: ES004-B5; experiment: SPR; remark: listed apart in the source
[3] = target: T1, 6 × His tagged huSIRPα V1 ECD recombinant protein (human, UniProt P78324 31-373); experiment: SPR
T1 sequence (P78324 31-373): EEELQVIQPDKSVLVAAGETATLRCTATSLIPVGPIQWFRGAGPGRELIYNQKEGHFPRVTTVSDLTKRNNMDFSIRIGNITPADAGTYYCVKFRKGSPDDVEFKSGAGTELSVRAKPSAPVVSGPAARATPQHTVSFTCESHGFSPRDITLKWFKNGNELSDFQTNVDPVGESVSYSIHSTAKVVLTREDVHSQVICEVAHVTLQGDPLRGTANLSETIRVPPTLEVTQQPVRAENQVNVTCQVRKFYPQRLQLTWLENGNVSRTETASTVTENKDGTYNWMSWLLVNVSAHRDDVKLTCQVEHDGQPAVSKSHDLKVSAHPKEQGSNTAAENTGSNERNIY

[4] = target: T1, 6 × His tagged huSIRPα V1 ECD …; experiment: SPR; remark: listed apart in the source
[5] = target: huSIRPα V1 overexpressed on CHOK1/hSIRPα V1 cells (human, UniProt P78324 31-504); experiment: FACS; competition with huCD47 ECD
Sequence of huSIRPα V1 overexpressed on CHOK1/hSIRPα V1 cells (P78324 31-504): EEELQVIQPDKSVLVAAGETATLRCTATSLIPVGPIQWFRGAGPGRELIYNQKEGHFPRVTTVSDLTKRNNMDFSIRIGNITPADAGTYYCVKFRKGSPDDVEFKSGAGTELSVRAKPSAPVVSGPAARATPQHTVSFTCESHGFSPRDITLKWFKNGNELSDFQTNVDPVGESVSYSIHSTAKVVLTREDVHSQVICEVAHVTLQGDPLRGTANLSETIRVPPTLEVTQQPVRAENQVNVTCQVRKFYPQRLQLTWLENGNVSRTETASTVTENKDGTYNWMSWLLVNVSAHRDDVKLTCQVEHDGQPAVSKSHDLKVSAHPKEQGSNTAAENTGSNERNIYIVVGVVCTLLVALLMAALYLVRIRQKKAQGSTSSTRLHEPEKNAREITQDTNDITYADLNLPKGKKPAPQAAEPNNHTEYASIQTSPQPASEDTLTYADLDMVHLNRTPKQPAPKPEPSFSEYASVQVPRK

[6] = target: B2; experiment: SPR
[7] = target: B2; experiment: SPR
[8] = target: huSIRPα V2 overexpressed on CHOK1/hSIRPα V2 cells (human, UniProt P78324 31-504); experiment: FACS; competition with huCD47 ECD
Sequence of huSIRPα V2 overexpressed on CHOK1/hSIRPα V2 cells (P78324 other isoform, or with tags, fused parts or gaps): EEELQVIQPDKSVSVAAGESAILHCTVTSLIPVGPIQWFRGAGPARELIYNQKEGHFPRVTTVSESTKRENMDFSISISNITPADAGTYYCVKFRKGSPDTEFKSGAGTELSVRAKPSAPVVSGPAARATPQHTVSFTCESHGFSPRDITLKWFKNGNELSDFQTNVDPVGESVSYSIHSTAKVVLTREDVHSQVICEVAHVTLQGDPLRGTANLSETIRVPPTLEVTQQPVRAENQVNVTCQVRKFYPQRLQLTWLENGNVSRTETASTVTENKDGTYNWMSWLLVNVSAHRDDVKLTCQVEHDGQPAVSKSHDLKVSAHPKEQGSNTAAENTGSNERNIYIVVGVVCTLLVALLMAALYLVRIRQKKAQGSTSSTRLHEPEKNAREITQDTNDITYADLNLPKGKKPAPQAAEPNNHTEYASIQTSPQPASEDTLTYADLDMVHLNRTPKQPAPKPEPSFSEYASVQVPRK

Binder: B1
- Kd [1]: 6.01 nM
- koff [1]: 0.00729 s⁻¹

Binder: B2
- Kd [2]: 2.81 nM
- koff [2]: 0.00422 s⁻¹

Binder: B3
- koff [3]: 0.00631 s⁻¹
- Kd [4]: 12.8 nM
- IC50 [5]: 1.29 nM

Binder: B4
- koff [6]: 0.0135 s⁻¹
- Kd [7]: 20.7 nM
- koff [3]: 0.00187 s⁻¹
- Kd [4]: 1.91 nM
- IC50 [8]: 6.04 nM
- IC50 [5]: 1.17 nM
